Assay results as given in paper PMC9005958.

Test system: T1, GST-rCtrA (Ehrlichia chaffeensis), ORF:1c7d897d
T1 sequence: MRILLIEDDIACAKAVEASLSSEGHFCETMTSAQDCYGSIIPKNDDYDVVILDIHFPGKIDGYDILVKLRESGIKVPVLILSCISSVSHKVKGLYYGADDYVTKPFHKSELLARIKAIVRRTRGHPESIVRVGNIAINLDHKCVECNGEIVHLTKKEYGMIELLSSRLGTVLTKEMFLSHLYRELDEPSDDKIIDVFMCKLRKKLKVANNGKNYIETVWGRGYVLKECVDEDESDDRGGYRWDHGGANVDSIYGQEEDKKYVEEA
Test: EMSA

Q: “ATATAACCTAATAGTGACAAATAAATTAACAATAGTAGAAGTGTCATATAAAAGCAAGTCAGAATATAAATTTTTGTATAAAATATCGGTAACTTTTGTAAGGAAAATTTAATATATTACGTCAGGTAAGTAATAGCAAAAAAACTGGTTAAGTATAGTATCATGTGTAAAGGTGAGAAAAACAGCACTTATAAACTAGTCCCCCCCCCCCCCCTCTTATTGCTACATTCTTTTGCCACTATTTTTATTTACCTGCAGCA (double strand) [p28 promoter]” was tested. Which binding did it give?
A: no binding
